# Assay results taken from publication PMC4373776, “A Unique HMG-Box Domain of Mouse Maelstrom Binds Structured RNA but Not Double Stranded DNA”.
# T1: MAEL HMG-box (Mus musculus, UniProt Q8BVN9 2-86)
# T1 sequence: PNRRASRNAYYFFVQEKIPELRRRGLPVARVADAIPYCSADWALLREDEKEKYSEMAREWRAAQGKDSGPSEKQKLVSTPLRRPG
# T2: HMGB1a (HMGB1 box A) (Mus musculus, UniProt P63158 2-86)
# T2 sequence: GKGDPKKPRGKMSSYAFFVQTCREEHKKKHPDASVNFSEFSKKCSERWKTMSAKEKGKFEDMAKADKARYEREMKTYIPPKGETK
# T3: MAEL HMG-box R8A (Mus musculus, UniProt Q8BVN9 2-86, R8A)
# T3 sequence: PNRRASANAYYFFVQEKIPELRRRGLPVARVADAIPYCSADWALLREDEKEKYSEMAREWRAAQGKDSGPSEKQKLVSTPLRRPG
# T4: MAEL HMG-box R23A (Mus musculus, UniProt Q8BVN9 2-86, R23A)
# T4 sequence: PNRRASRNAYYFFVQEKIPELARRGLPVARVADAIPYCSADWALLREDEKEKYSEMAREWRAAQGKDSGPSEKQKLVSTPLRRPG
# T5: MAEL HMG-box R25A (Mus musculus, UniProt Q8BVN9 2-86, R25A)
# T5 sequence: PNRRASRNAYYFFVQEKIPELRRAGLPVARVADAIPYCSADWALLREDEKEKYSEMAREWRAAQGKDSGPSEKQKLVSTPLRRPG
# T6: MAEL HMG-box R31A (Mus musculus, UniProt Q8BVN9 2-86, R31A)
# T6 sequence: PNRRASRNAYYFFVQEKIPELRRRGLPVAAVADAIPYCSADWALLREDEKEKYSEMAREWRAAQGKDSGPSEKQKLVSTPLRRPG
# T7: MAEL HMG-box Q16A (Mus musculus, UniProt Q8BVN9 2-86, Q16A)
# T7 sequence: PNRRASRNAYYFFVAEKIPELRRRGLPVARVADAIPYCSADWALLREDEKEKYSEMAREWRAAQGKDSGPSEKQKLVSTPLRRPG
# B1: dsDNA-SRY 15 bp (dsDNA)
# DNA 1: GCGCAACAATGCCGG
# DNA 2: CCGGCATTGTTGCGC
# B2: DNA 4WJ (structured_DNA)
# DNA 1: CCGACAGGACTGTCAACCAGGTAATATACCACTTGCGG
# DNA 2: CCGCAAGTGGTATATTACCTGGTACGCGTTCACGG
# DNA 3: CCGTGAACGCGTGGTGCGAATCGG
# DNA 4: CCGATTCGCACCTGACAGTCCTGTCGG
# B3: chr2 noPeak 177-nt RNA (structured_RNA)
# RNA: GGGGGGGAUGAAAAAUUCAUCUAAUUUAGUACAAUGUAAAUAUAAAGAGUUUGGAAAUUUUUGAAAACUUGAGGUCAUGUUAAAAAAGCAACAACUCUCCUUUUAGAUUGUCCUAUUUGUGUCUUGAAAUUCCUAUGCUGUUCUAAACCCAUUUGGUAUGUAUGCUCCUGCCCAAAC
# B4: RNA 4WJ (structured_RNA)
# RNA 1: CCGACAGGACUGUCAACCAGGUAAUAUACCACUUGCGG
# RNA 2: CCGCAAGUGGUAUAUUACCUGGUACGCGUUCACGG
# RNA 3: CCGUGAACGCGUGGUGCGAAUCGG
# RNA 4: CCGAUUCGCACCUGACAGUCCUGUCGG
# modifications: 5'-terminal dC and 3'-terminal dG on each strand
# B5: methylated dsDNA 16 bp (dsDNA)
# DNA 1: CAGTCGACGTCGTGAC
# DNA 2: GTCACGACGTCGACTG
# modifications: 5-methyl-dC at position 8 of each strand
# B6: L1_Md_F2 277-nt RNA (structured_RNA)
# RNA: GGGUUCUGGCUAUUAUAAAUAAGGCUGCUAUGAACAUAGUGGAGCAUGUGUCCUUCUUACCGGUUGGGGCAUCUUCUGGAUAUAUGCCCAGGAGAGGUAUUGCUGGAUCCUCCGGUAGUACUAUGUCCAAUUUUCUGAGGAACCACCAGACUGAUUUCCAGAGUGGUUGUACAGCUUGCAAUCCCACCAGCAAUGAAGGCGUGUUCCUCUUUCUCCACAUCCACGCCAGCAUCUGCUGUCACCUGAAUUUUUGAUCUUAGCCAUUCUGACUGGUGUG
# What was measured:
# SRY HMG-box [1] = molecular target: T8, SRY HMG-box (Mus musculus (129S4), UniProt Q05738 2-86); assay: EMSA; 2.5 mM Mg2+; average of titration and cold competition; 10 mM potassium phosphate pH 7.5, 50 mM KCl, 5% glycerol, 1 mM TCEP, 0.1 mg/ml BSA, 2.5 mM MgCl2, ~1 nM substrate, room temperature 30-60 min; native PAGE in ice bath; settings: protein: recombinant; tags: GST removed by PreScission (pGex6P2); label: 5' 32P; blunt
# T8 sequence (Q05738 2-86): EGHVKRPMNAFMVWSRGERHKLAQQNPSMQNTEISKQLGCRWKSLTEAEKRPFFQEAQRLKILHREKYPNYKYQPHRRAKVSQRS
# MAEL HMG-box [2] = molecular target: T1, MAEL HMG-box; assay: EMSA; 10 mM potassium phosphate pH 7.5, 50 mM KCl, 5% glycerol, 1 mM TCEP, 0.1 mg/ml BSA, 2.5 mM MgCl2, ~1 nM substrate, room temperature 30-60 min; native PAGE in ice bath; settings: protein: recombinant, tags: GST removed by PreScission (pGex6P2), label: 5' 32P
# HMGB1a (HMGB1 box A) [3] = molecular target: T2, HMGB1a (HMGB1 box A); assay: as above; settings: protein: recombinant; tags: GST removed by PreScission (pGex6P2); label: 5' 32P; blunt
# HMGB1a (HMGB1 box A) [4] = molecular target: T2, HMGB1a (HMGB1 box A); assay: EMSA; two complexes; 10 mM potassium phosphate pH 7.5, 50 mM KCl, 5% glycerol, 1 mM TCEP, 0.1 mg/ml BSA, 2.5 mM MgCl2, ~1 nM substrate, room temperature 30-60 min; native PAGE in ice bath; settings: protein: recombinant; tags: GST removed by PreScission (pGex6P2); label: 5' 32P; four-way junction of 4 strands
# SRY HMG-box [5] = molecular target: T8, SRY HMG-box; assay: EMSA; five complexes; 10 mM potassium phosphate pH 7.5, 50 mM KCl, 5% glycerol, 1 mM TCEP, 0.1 mg/ml BSA, 2.5 mM MgCl2, ~1 nM substrate, room temperature 30-60 min; native PAGE in ice bath; settings: protein: recombinant; tags: GST removed by PreScission (pGex6P2); label: 5' 32P; four-way junction of 4 strands
# MAEL HMG-box R8A = molecular target: T3, MAEL HMG-box R8A; assay: EMSA; 10 mM potassium phosphate pH 7.5, 50 mM KCl, 5% glycerol, 1 mM TCEP, 0.1 mg/ml BSA, 2.5 mM MgCl2, ~1 nM substrate, room temperature 30-60 min; native PAGE in ice bath; settings: protein: recombinant; tags: GST removed by PreScission (pGex6P2); label: 5' 32P; four-way junction of 4 strands
# MAEL HMG-box R23A = molecular target: T4, MAEL HMG-box R23A; assay: as above; settings: protein: recombinant; tags: GST removed by PreScission (pGex6P2); label: 5' 32P; four-way junction of 4 strands
# MAEL HMG-box R25A = molecular target: T5, MAEL HMG-box R25A; assay: as above; settings: protein: recombinant; tags: GST removed by PreScission (pGex6P2); label: 5' 32P; four-way junction of 4 strands
# MAEL HMG-box R31A = molecular target: T6, MAEL HMG-box R31A; assay: as above; settings: protein: recombinant; tags: GST removed by PreScission (pGex6P2); label: 5' 32P; four-way junction of 4 strands
# MAEL HMG-box Q16A = molecular target: T7, MAEL HMG-box Q16A; assay: EMSA; same as wild type; 10 mM potassium phosphate pH 7.5, 50 mM KCl, 5% glycerol, 1 mM TCEP, 0.1 mg/ml BSA, 2.5 mM MgCl2, ~1 nM substrate, room temperature 30-60 min; native PAGE in ice bath; settings: protein: recombinant; tags: GST removed by PreScission (pGex6P2); label: 5' 32P; four-way junction of 4 strands
# MAEL HMG-box [6] = molecular target: T1, MAEL HMG-box; assay: EMSA; no appreciable binding; 10 mM potassium phosphate pH 7.5, 50 mM KCl, 5% glycerol, 1 mM TCEP, 0.1 mg/ml BSA, 2.5 mM MgCl2, ~1 nM substrate, room temperature 30-60 min; native PAGE in ice bath; settings: protein: recombinant; tags: GST removed by PreScission (pGex6P2); label: 5' 32P; folded
# HMGB1a (HMGB1 box A) [7] = molecular target: T2, HMGB1a (HMGB1 box A); assay: EMSA; multiple intermediate complexes; 10 mM potassium phosphate pH 7.5, 50 mM KCl, 5% glycerol, 1 mM TCEP, 0.1 mg/ml BSA, 2.5 mM MgCl2, ~1 nM substrate, room temperature 30-60 min; native PAGE in ice bath; settings: protein: recombinant; tags: GST removed by PreScission (pGex6P2); label: 5' 32P; four-way junction of 4 strands
# MAEL HMG-box [8] = molecular target: T1, MAEL HMG-box; assay: EMSA; 2.5 mM Mg2+; binding incomplete; 10 mM potassium phosphate pH 7.5, 50 mM KCl, 5% glycerol, 1 mM TCEP, 0.1 mg/ml BSA, 2.5 mM MgCl2, ~1 nM substrate, room temperature 30-60 min; native PAGE in ice bath; settings: protein: recombinant; tags: GST removed by PreScission (pGex6P2); label: 5' 32P; four-way junction of 4 strands
# MAEL HMG-box [9] = molecular target: T1, MAEL HMG-box; assay: EMSA; complex from 0.5 uM protein; cooperative; fully bound; 10 mM potassium phosphate pH 7.5, 50 mM KCl, 5% glycerol, 1 mM TCEP, 0.1 mg/ml BSA, 2.5 mM MgCl2, ~1 nM substrate, room temperature 30-60 min; native PAGE in ice bath; settings: protein: recombinant; tags: GST removed by PreScission (pGex6P2); label: 5' 32P; folded
binder,measurement,setting,value
B1,Kd,SRY HMG-box [1],~12 nM
same,binding result,MAEL HMG-box [2]; blunt,no binding
same,binding result,HMGB1a (HMGB1 box A) [3],no binding
B2,binding result,HMGB1a (HMGB1 box A) [4],binds
same,binding result,SRY HMG-box [5],binds
same,binding result,MAEL HMG-box R8A,no binding
same,binding result,MAEL HMG-box R23A,no binding
same,binding result,MAEL HMG-box R25A,no binding
same,binding result,MAEL HMG-box R31A,no binding
same,binding result,MAEL HMG-box Q16A,binds
B3,binding result,MAEL HMG-box [6],no binding
B4,binding result,HMGB1a (HMGB1 box A) [7],binds
same,Kd,MAEL HMG-box [8],638 nM
same,binding result,MAEL HMG-box R8A,no binding
GGGACCAGAAGGUCCCG (structured_RNA) [RNA hairpin 2],binding result,MAEL HMG-box [2]; hairpin,no binding
B5,binding result,MAEL HMG-box [2]; blunt,no binding
AAAGGGTTAGGGTTAGGGTTAGGGAA (ssDNA) [ssDNA (25-nt)],binding result,MAEL HMG-box [2],no binding
GCGCAACAAUGCCGG (structured_RNA) [RNA hairpin 1],binding result,MAEL HMG-box [2]; hairpin,no binding
B6,binding result,MAEL HMG-box [9],binds
GGGAAAGGGUUAGGGUUAGGGUUAGGGAA (ssRNA) [ssRNA],binding result,MAEL HMG-box [2],no binding
